Positions of bridges follow the written chain, without caps; N, C: chain ends. Non-standard residues stand in square brackets, D forms with d. Primed or numbered codes have the meaning given here. *: point of attachment. FITC = O=C1OC2(c3ccc(O)cc3Oc3cc(O)ccc32)c2ccc(NC(=S)*)cc21; FITC″ = Lys(FITC) = N6-fluorescein-thiocarbamoyl-L-lysine; trimesoyl″ = benzene-1,3,5-tricarbonyl scaffold; FITC′ = fluorescein isothiocyanate, on Lys NZ; trimesoyl = benzene-1,3,5-tricarbonyl; Nle = CCCC[C@H](N)C(=O)O; Dap = NC[C@H](N)C(=O)O; Sar = CNCC(=O)O

In general, Kd refers to a measure of binding affinity in units of concentration.

T1 sequence (P01375 77-233): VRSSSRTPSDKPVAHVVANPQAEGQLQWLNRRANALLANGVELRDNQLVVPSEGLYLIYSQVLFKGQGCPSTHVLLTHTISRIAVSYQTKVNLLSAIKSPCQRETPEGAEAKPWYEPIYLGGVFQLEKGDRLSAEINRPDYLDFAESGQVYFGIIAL

The first experiment addresses T1, Recombinant TNFα containing an N-terminal 13-aa ybbR tag (human, UniProt P01375 77-233, biotin at the ybbR tag in the ELISA assays).
T1 construct: Expressed in E. coli; Same construct used unlabelled (FA) and biotinylated on NeutrAvidin (ELISA); also called tumor necrosis factor-alpha; human TNFα; not shown: N-terminal 13-aa ybbR tag
As to the kind of experiment: FA. Here is the method:
(§1) The FA values were measured on a Molecular Devices Spectramax M5 spectrofluorimeter, with excitation and emission wavelengths at 485 and 525 nm, respectively. Equilibrium dissociation constants (KD) were determined by plotting the FA values as a function of TNFα concentration and fitting the data to the following equation $$Y = \frac{\left(Amin + \left(Amax \times \frac{Q_b}{Q_f} - Amin\right)\left(\frac{(L+x+K_d) - \sqrt{((L+x+K_d)^2 - 4Lx)}}{2L}\right)\right)}{\left(1 + \left(\frac{Q_b}{Q_f} - 1\right)\left(\frac{(L+x+K_d) - \sqrt{((L+x+K_d)^2 - 4Lx)}}{2L}\right)\right)}$$
(§2) where Y is the measured anisotropy at a given TNFα concentration x; L is the bicyclic peptide concentration; Qb/Qf is the correction fact for dye-protein interaction; Amax is the maximum anisotropy when all the peptides are bound to TNFα, while $Amin$ is the minimum anisotropy. […] The FA values were plotted against the competitor peptide concentration to determine the IC$50$ values.
Turning to GY[dA]KY[dF]G[dK]H[Dap]K(FITC′)-NH2 (bridge N-4-10 via trimesoyl″; not fully specified (N-terminus)) [C1-1], the “fold decrease in TNFα binding against C1 (Phg at position-1)” value (“fold decrease in TNFα binding against C1” below) was no less than 5 fold. Turning to SY[dA]KY[dF]G[dK]H[Dap]K(FITC)-NH2 (linker N-4-10 via trimesoyl″) [C1-6], the “fold decrease in TNFα binding against C1” value was no less than 5 fold. Still for that read-out and setting: the value for DY[dA]KY[dF]G[dK]H[Dap]K(FITC″)-NH2 (linker N-4-10 via trimesoyl) [C1-8] was no less than 5 fold. On the same count and under the same terms, as for TY[dA]KY[dF]G[dK]H[Dap]K(FITC″)-NH2 (linker N-4-10 via trimesoyl) [C1-7], the figure is no less than 5 fold.

Take NY[dA]KY[dF]G[dK]H[Dap]K(FITC″)-NH2 (linker N-4-10 via trimesoyl) [C1-9]: the “fold decrease in TNFα binding against C1” value was no less than 5 fold. For the molecule [Nle]Y[dS]KW[dH]G[dK]H[Dap]RK(FITC)-NH2 (linker N-4-10 via trimesoyl″, C1-35 core with R11 as printed) [C1-53], the “fold reduction in affinity against C1-35” value was greater than 40 fold.

Consider [Nle]Y[dS]KY[dH][Sar][dK]H[Dap]K(FITC)-NH2 (linker N-4-10 via trimesoyl″) [C1-43], for which the “fold effect on affinity against Gly-7” value came out at 2 fold.

Regarding [Nle]Y[dA]KY[dF]G[dK]H[Dap]K(FITC)-NH2 (linker N-4-10 via trimesoyl″) [C1-5], the “fold better binding against C1” value was roughly 2 fold.

Turning to [Nle]Y[dS]KY[dH]A[dK]H[Dap]K(FITC)-NH2 (linker N-4-10 via trimesoyl″) [C1-44], the “fold effect on affinity against Gly-7” value is 2 fold.

Regarding [Nle]Y[dS]KW[dH]S[dK]H[Dap]K(FITC)-NH2 (linker N-4-10 via trimesoyl″) [C1-45], the “fold effect on affinity against Gly-7” value turned out to be 2 fold. Regarding [Nle]Y[dS]KW[dH]V[dK]H[Dap]K(FITC)-NH2 (linker N-4-10 via trimesoyl″) [C1-46], the “fold loss of binding against Gly-7” value lay within 3 to 6 fold. Consider [Nle]Y[dS]KW[dH]G[dK]F[Dap]K(FITC)-NH2 (linker N-4-10 via trimesoyl″) [C1-50], for which the “fold reduction in affinity against His at position-9” value is roughly 30 fold. As to [Nle]Y[dS]KW[dH]L[dK]H[Dap]K(FITC)-NH2 (linker N-4-10 via trimesoyl″) [C1-47], the “fold loss of binding against Gly-7” value is 3 to 6 fold.

A further experiment concerns the target T1, Recombinant TNFα containing an …. As to the kind of experiment: FA, FITC-peptide + TNFα titration. Here is the method: as §1, §2
For the molecule GY[dA]KY[dF]G[dK]H[Dap]K(FITC′)-NH2 (bridge N-4-10 via trimesoyl″; not fully specified (N-terminus)) [C1-1], the Kd was found to be 7.1 µM. On the same count and under the same terms, the value for SY[dA]KY[dF]G[dK]H[Dap]K(FITC)-NH2 (linker N-4-10 via trimesoyl″) [C1-6] was 6.2 µM.

DY[dA]KY[dF]G[dK]H[Dap]K(FITC″)-NH2 (linker N-4-10 via trimesoyl) [C1-8]: the Kd turned out to be 7 µM. The same measure, in the same setting: the value for TY[dA]KY[dF]G[dK]H[Dap]K(FITC″)-NH2 (linker N-4-10 via trimesoyl) [C1-7] was 7.2 µM; that for NY[dA]KY[dF]G[dK]H[Dap]K(FITC″)-NH2 (linker N-4-10 via trimesoyl) [C1-9] was 7.9 µM. Turning to [Nle]Y[dS]KY[dH][Sar][dK]H[Dap]K(FITC)-NH2 (linker N-4-10 via trimesoyl″) [C1-43], the Kd is 0.33 µM. For the molecule [Nle]Y[dA]KY[dF]G[dK]H[Dap]K(FITC)-NH2 (linker N-4-10 via trimesoyl″) [C1-5], the Kd was determined as 0.85 µM.

As for [Nle]Y[dS]KY[dH]A[dK]H[Dap]K(FITC)-NH2 (linker N-4-10 via trimesoyl″) [C1-44], the Kd amounted to 0.32 µM. Take [Nle]Y[dS]KW[dH]S[dK]H[Dap]K(FITC)-NH2 (linker N-4-10 via trimesoyl″) [C1-45]: the Kd was determined as 0.42 µM. Same read-out and setting: as for [Nle]Y[dS]KW[dH]V[dK]H[Dap]K(FITC)-NH2 (linker N-4-10 via trimesoyl″) [C1-46], the figure is 0.88 µM; as for [Nle]Y[dS]KW[dH]G[dK]F[Dap]K(FITC)-NH2 (linker N-4-10 via trimesoyl″) [C1-50], 7.5 µM; as for [Nle]Y[dS]KW[dH]L[dK]H[Dap]K(FITC)-NH2 (linker N-4-10 via trimesoyl″) [C1-47], 1.7 µM.

For the origin of these results see US10913773B2, “Bicyclic peptidyl inhibitor of tumor necrosis factor-alpha” (Ohio State Innovation Foundation, priority 2016, dated 2021).
